Biological target: Rubiscolin-6 (Spinacia oleracea)
Assay: [3H]DPDPE displacement radioligand binding

- Ki: 1000 nM
B1: Delta opioid receptor, P41143 (protein)
chain: MEPAPSAGAELQPPLFANASDAYPSACPSAGANASGPPGARSASSLALAIAITALYSAVCAVGLLGNVLVMFGIVRYTKMKTATNIYIFNLALADALATSTLPFQSAKYLMETWPFGELLCKAVLSIDYYNMFTSIFTLTMMSVDRYIAVCHPVKALDFRTPAKAKLINICIWVLASGVGVPIMVMAVTRPRDGAVVCMLQFPSPSWYWDTVTKICVFLFAFVVPILIITVCYGLMLLRLRSVRLLSGSKEKDRSLRRITRMVLVVVGAFVVCWAPIHIFVIVWTLVDIDRRDPLVVAALHLCIALGYANSSLNPVLYAFLDENFKRCFRQLCRKPCGRPDPSSFSRAREATARERVTACTPSDGPGGGAAA

Source: article PMC6421079
